Measurements as given in patent US20240325555A1 (LANOVA MEDICINES, published 2024).
Where two headings read alike, the source gives them in different places.

Legend:
cynomolgus LIV-1 [1] = target: T1, cynomolgus LIV-1 (cynomolgus, UniProt A0A2K5WH46 30-741); assay: FACS, HEK293/Cyno_LIV-1 cells
Method: (§1) Cell based binding of optimal leads to different species LIV-1 expressing cells were assessed using flow cytometry. Briefly, the cells were incubated with optimal leads (from 100 nM, 6 folds dilution, 8 points). After incubation at 4° C. for 60 minutes, the cells were washed with 2% FBS/PBS buffer twice, then stained with fluorescent conjugated secondary antibody at 4° C. for 30 minutes. After that the cells were washed twice and resuspended in 80 μL of 2% FBS/PBS buffer. Fluorescent signal of binding was detected using Agilent. The EC50 was calculated using the GraphPad Software (LaJolla, CA).

human LIV-1 [2] = target: T2, human LIV-1 (human, UniProt Q13433 29-755); assay: FACS, HEK293/H_LIV-1 cells
T2 construct: whole, on cells; also called H-LIV1
T2 sequence (looked up): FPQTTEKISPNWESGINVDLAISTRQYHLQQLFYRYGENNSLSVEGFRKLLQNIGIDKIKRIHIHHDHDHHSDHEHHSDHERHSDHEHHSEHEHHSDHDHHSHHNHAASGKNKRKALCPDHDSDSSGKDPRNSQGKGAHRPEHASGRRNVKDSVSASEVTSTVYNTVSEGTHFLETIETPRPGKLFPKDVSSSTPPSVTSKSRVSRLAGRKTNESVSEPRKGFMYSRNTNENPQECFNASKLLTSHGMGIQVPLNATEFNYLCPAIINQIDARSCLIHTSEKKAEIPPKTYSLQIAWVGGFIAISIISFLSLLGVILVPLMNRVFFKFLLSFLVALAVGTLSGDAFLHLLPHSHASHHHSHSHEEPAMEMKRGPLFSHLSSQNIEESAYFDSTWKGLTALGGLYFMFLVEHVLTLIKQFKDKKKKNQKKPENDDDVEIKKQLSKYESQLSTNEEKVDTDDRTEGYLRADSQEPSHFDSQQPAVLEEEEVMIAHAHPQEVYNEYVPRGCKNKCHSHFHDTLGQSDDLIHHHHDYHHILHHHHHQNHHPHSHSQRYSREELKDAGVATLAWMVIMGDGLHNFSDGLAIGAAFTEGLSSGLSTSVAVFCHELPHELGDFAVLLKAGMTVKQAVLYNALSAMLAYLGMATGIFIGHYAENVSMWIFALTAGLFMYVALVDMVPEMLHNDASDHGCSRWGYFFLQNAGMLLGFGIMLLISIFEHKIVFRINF
Method: (§2) Cell based binding of ADC and naked of ADC on human LIV-1 expressing cells were assessed using flow cytometry. Briefly, HEK293/H_LIV-1, both low- and high-expressing H-LIV1-positive cell lines were incubated with ADC and naked of ADC (from 100 nM, 6 folds dilution, 8 points), respectively. After incubation at 4° C. for 60 minutes, the cells were washed with FACS buffer twice, then stained with fluorescent conjugated secondary antibody at 4° C. for 30 minutes. After that the cells were washed twice and analyzed by flow cytometry.

rat LIV-1 = target: T3, rat LIV-1 (rat, UniProt Q4V887 21-741); assay: FACS, HEK293/Rat_LIV-1 cells
T3 construct: whole, on cells
T3 sequence (looked up): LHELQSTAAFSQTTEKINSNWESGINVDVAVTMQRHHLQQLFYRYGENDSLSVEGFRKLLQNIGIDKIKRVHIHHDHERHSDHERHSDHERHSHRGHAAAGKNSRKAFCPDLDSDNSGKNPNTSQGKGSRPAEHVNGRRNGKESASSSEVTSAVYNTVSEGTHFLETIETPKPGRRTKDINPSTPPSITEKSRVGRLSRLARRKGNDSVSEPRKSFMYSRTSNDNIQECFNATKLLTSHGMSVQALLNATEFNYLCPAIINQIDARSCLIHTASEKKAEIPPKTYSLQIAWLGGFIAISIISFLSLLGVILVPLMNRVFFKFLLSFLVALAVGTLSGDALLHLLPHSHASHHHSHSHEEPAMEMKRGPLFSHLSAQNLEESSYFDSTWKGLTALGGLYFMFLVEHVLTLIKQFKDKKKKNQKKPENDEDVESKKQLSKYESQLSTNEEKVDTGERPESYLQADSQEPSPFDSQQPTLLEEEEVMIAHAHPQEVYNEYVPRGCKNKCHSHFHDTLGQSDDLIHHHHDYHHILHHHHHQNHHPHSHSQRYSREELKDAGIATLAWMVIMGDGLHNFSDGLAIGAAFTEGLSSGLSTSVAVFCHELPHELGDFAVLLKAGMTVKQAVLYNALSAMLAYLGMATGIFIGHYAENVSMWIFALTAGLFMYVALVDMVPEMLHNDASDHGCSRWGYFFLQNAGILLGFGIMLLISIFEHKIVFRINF
Method: (§3) Humanized antibodies 5D6B10.z7, 124H4D11.p2.z4 and 290F10G10.p1.z2 were selected for further testing. In this example, FACS cross binding of these selected antibodies to LIV-1 of different species were assessed using flow cytometry.
as §1

human LIV-1 [3] = target: T2, human LIV-1; assay: FACS, BT20/H_LIV-1 High cells
Method: as §2

human LIV-1 [4] = target: T2, human LIV-1; assay: FACS, HEK293/H_LIV-1 cells; remark: listed apart in the source
Summary of the method: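 HEK293 cells expressing human LIV-1 incubated with humanized antibodies (from 100 nM, 6-fold dilutions, 8 points) at 4 °C for 60 min. Bound antibody detected with a fluorescent secondary antibody (4 °C, 30 min) by flow cytometry.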

rhesus LIV-1 = rhesus LIV-1 (rhesus, UniProt H9FSJ2 30-735); assay: FACS, HEK293/Rhe_LIV-1 cells
Method: as §3, §1

mouse LIV-1 = target: T4, mouse LIV-1 (mouse, UniProt Q8C145 21-765); assay: FACS, HEK293/Mouse_LIV-1 cells
T4 construct: whole, on cells
T4 sequence (looked up): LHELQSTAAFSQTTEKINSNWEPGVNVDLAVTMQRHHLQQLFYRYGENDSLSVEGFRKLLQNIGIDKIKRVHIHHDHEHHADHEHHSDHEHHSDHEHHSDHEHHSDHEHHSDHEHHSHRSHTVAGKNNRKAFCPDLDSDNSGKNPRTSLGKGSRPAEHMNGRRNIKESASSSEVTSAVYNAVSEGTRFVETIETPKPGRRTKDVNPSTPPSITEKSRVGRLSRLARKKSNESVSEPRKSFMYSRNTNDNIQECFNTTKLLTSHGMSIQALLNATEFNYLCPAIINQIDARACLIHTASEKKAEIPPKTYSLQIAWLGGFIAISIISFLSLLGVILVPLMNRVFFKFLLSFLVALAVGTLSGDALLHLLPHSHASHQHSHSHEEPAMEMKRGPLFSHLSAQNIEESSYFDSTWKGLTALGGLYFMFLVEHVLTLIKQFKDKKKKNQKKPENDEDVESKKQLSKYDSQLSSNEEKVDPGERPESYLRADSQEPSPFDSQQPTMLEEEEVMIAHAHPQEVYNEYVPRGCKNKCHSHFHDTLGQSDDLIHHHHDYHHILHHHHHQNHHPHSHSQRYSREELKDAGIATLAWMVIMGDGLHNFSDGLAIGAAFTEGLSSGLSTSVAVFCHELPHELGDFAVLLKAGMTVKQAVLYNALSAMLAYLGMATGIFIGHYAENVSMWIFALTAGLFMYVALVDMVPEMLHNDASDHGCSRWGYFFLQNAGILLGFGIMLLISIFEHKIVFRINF
Method: as §3, §1

human LIV-1 [5] = target: T2, human LIV-1; assay: cell-based or functional assay
human LIV-1 [6] = target: T2, human LIV-1; assay: FACS, BT20/H_LIV-1 Low cells
Method: as §2

cynomolgus LIV-1 [7] = target: T1, cynomolgus LIV-1; assay: FACS, HEK293/Cyno_LIV-1 cells; remark: listed apart in the source

T1 sequence (A0A2K5WH46 entry or part of it): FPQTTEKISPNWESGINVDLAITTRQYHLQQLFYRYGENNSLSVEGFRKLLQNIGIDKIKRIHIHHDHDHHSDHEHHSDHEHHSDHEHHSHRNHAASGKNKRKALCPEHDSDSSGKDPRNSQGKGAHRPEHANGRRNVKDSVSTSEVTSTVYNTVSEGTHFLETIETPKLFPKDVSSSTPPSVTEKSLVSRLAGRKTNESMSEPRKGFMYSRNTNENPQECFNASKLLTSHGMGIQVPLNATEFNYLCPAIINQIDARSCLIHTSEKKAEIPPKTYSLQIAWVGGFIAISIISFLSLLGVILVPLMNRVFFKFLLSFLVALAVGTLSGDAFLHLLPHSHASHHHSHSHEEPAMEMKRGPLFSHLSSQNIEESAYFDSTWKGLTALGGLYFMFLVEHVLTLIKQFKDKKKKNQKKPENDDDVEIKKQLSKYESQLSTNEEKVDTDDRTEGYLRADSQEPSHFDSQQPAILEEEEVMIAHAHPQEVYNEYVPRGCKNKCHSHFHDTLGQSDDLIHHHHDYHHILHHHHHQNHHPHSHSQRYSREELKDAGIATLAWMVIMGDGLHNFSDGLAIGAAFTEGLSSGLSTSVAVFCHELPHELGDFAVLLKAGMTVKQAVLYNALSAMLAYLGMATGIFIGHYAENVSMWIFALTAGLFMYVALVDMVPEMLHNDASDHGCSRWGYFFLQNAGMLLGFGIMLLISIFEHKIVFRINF
rhesus LIV-1, sequence (H9FSJ2 entry or part of it): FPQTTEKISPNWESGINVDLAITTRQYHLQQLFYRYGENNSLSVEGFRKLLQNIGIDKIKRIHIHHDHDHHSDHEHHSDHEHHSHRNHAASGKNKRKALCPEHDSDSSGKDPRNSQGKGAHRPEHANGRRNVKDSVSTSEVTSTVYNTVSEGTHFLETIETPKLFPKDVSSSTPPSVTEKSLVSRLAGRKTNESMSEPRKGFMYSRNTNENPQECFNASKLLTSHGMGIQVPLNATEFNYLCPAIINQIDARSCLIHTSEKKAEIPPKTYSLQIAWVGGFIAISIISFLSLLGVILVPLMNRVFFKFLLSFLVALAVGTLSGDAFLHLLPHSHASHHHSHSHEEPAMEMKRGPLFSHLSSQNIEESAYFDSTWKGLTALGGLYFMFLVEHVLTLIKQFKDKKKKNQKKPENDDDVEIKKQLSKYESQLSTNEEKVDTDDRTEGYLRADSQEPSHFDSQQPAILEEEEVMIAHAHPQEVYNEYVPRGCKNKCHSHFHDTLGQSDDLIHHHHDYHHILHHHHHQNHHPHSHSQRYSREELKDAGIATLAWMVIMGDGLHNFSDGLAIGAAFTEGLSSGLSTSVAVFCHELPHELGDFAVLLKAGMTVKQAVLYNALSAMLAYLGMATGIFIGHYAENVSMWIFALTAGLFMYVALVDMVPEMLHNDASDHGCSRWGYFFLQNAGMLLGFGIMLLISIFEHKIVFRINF

B1: 5D6B10.Z7 (antibody, V domains shown)
VH: QVQLVQSGGGVVQPGRSLRLSCTVSGFSLTTYGIHWVRQSPGKGLEWLGVIWTGGTTDYNAAFISRLTISKDNSKSTVYFQMNSLQAEDTAIYYCARGPSSYWGQGTLVTVSS
VL: EIVMTQSPATLSVSPGERATLSCKASQNVDTNVVWYQQKPGQSPRALIYSASYRYSGVPARFSGSGSGTEFTLTISSLQSEDFAVYFCQQYNNYPWTFGQGTKVEIK
B1 was tested, and the EC50 (cynomolgus LIV-1 [1]) was 550 pM, the “Top (MFI)” value (cynomolgus LIV-1 [1]) was 13900 MFI and the EC50 (human LIV-1 [2]) was 690 pM. For the same binder, the “Top (MFI)” value (human LIV-1 [2]) was 102000 MFI, the “Top (MFI)” value (rat LIV-1) was 255 MFI and the binding result (rat LIV-1) was “no binding (tested: 100 nM)”. For the same binder, the EC50 (human LIV-1 [3]) was 1060 pM, the “Top (MFI)” value (human LIV-1 [3]) was 152000 MFI and the EC50 (human LIV-1 [4]) was 220 pM. The “Top (MFI)” value (human LIV-1 [4]) was 50700 MFI, the EC50 (rhesus LIV-1) was 300 pM and the “Top (MFI)” value (rhesus LIV-1) was 41000 MFI. For the same binder, the “Top (MFI)” value (mouse LIV-1) was 162 MFI, the binding result (mouse LIV-1) was “no binding (tested: 100 nM)” and the “Internalization EC50” value (human LIV-1 [5]) was 5700 pM. For the same binder, the “Internalization Top (MFI)” value (human LIV-1 [5]) was 59100 MFI, the EC50 (human LIV-1 [6]) was 510 pM and the “Top (MFI)” value (human LIV-1 [6]) was 34700 MFI. For the same binder, the EC50 (cynomolgus LIV-1 [7]) was 190 pM and the “Top (MFI)” value (cynomolgus LIV-1 [7]) was 20400 MFI.
